Test results published in publication PMC7744049.

Target: SARS-CoV RBD (residues 306-527 of the spike protein) (SARS-CoV) (UniProt P59594)

CR3022 IgG (antibody)
pseudovirus neutralization assay (SARS-CoV spike on pseudovirus), IC50: 5.2 µg/mL
